Measured values taken from article PMC6126765 (Proceedings of the National Academy of Sciences of the …, 2018).

Target: the molecule itself
Assay: cryo-EM structure

B1: MBP-tagged truncated mouse TRPM7 (amino acids 1 to 1280) (domain or fragment)
chain: MSQKSWIESTLTKRECVYIIPSSKDPHRCLPGCQICQQLVRCFCGRLVKQHACFTASLAMKYSDVKLGEHFNQAIEEWSVEKHTEQSPTDAYGVINFQGGSHSYRAKYVRLSYDTKPEIILQLLLKEWQMELPKLVISVHGGMQKFELHPRIKQLLGKGLIKAAVTTGAWILTGGVNTGVAKHVGDALKEHASRSSRKICTIGIAPWGVIENRNDLVGRDVVAPYQTLLNPLSKLNVLNNLHSHFILVDDGTVGKYGAEVRLRRELEKTINQQRIHARIGQGVPVVALIFEGGPNVILTVLEYLQESPPVPVVVCEGTGRAADLLAYIHKQTEEGGNLPDAAEPDIISTIKKTFNFGQSEAVHLFQTMMECMKKKELITVFHIGSEDHQDIDVAILTALLKGTNASAFDQLILTLAWDRVDIAKNHVFVYGQQWLVGSLEQAMLDALVMDRVSFVKLLIENGVSMHKFLTIPRLEELYNTKQGPTNPMLFHLIRDVKQGNLPPGYKITLIDIGLVIEYLMGGTYRCTYTRKRFRLIYNSLGGNNRRSGRNTSSSTPQLRKSHETFGNRADKKEKMRHNHFIKTAQPYRPKMDASMEEGKKKRTKDEIVDIDDPETKRFPYPLNELLIWACLMKRQVMARFLWQHGEESMAKALVACKIYRSMAYEAKQSDLVDDTSEELKQYSNDFGQLAVELLEQSFRQDETMAMKLLTYELKNWSNSTCLKLAVSSRLRPFVAHTCTQMLLSDMWMGRLNMRKNSWYKVILSILVPPAILMLEYKTKAEMSHIPQSQDAHQMTMEDSENNFHNITEEIPMEVFKEVKILDSSDGKNEMEIHIKSKKLPITRKFYAFYHAPIVKFWFNTLAYLGFLMLYTFVVLVKMEQLPSVQEWIVIAYIFTYAIEKVREVFMSEAGKISQKIKVWFSDYFNVSDTIAIISFFVGFGLRFGAKWNYINAYDNHVFVAGRLIYCLNIIFWYVRLLDFLAVNQQAGPYVMMIGKMVANMFYIVVIMALVLLSFGVPRKAILYPHEEPSWSLAKDIVFHPYWMIFGEVYAYEIDVCANDSTLPTICGPGTWLTPFLQAVYLFVQYIIMVNLLIAFFNNVYLQVKAISNIVWKYQRYHFIMAYHEKPVLPPPLIILSHIVSLFCCVCKRRKKDKTSDGPKLFLTEEDQKKLHDFEEQCVEMYFDEKDDKFNSGSEERIRVTFERVEQMSIQIKEVGDRVNYIKRSLQSLDSQIGHLQDLSALTVDTLKTLTAQKASEASKVHNEITRELSISKHLAQNLID
stoichiometry N: 4
